Source: article PMC6548965

Target: AP heterodimer (IAP/PLAP) on LoVo cells (human) (UniProt P09923+P05187)
Test: flow cytometry
Conditions: 4 C, apparent Kd, PBS pH 7.4 (about 137 mM NaCl) with 5 mM MgCl2, 4.5 g/L glucose, 1 mg/mL BSA, 0.1 mg/mL herring sperm DNA, 30 min at 4 C

Sequence of AP heterodimer (IAP/PLAP) on LoVo cells (human) (P09923 20-503, chain 1 of 2): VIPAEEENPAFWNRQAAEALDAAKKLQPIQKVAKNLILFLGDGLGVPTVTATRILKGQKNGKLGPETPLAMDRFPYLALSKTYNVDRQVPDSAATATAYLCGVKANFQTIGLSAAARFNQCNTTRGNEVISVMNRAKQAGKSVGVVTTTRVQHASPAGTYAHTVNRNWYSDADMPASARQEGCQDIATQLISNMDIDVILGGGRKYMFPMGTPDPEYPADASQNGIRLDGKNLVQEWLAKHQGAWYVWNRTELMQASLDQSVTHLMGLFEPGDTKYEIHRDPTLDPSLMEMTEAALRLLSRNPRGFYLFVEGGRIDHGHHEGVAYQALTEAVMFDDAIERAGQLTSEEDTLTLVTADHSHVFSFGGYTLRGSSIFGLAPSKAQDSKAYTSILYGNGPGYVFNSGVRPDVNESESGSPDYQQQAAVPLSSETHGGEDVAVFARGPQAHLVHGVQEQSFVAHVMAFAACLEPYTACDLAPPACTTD
Sequence of AP heterodimer (IAP/PLAP) on LoVo cells (human) (P05187 23-506, chain 2 of 2): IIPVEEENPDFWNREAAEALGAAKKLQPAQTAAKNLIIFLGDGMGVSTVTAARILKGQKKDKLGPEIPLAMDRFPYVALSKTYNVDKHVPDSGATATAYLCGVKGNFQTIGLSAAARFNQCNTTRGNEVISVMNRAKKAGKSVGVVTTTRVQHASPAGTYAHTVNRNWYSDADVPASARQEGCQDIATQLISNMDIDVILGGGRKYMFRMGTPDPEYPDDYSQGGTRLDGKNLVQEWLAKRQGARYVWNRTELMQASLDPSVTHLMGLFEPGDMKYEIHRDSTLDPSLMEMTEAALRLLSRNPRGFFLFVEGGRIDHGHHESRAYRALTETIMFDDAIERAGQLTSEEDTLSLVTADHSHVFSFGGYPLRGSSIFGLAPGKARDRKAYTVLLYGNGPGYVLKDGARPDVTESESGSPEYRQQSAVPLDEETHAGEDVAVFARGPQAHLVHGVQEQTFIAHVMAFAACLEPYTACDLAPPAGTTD

Sequence | Kd [nM]
CAAGGAATAGGGGTCGGTGTGGGTGGTTATGATTGGCTTCCTTG [BG2] | 2.5
TAGGGGTCGGTGTGGGTGGTTATGATTGGC [BG2c] | 9.3
TAAAAAATAGGGGTCGGTGTGGGTGGTTATGATTGGCTTTTTTA [BG4] | 11.5
